From the nanobody polyreactivity screen of Harvey et al. (2022)

assay: yeast display, Sf9 membrane polyspecificity reagent, FACS + sequencing; frameworks hold sequencing errors
Method in brief: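 A nanobody's polyreactivity label depends on the gate it was sorted from. Yeast display cells were stained with 10% biotinylated, detergent-solubilized Sf9 membrane reagent for 1 hour at 4 °C, enriched on streptavidin microbeads and sorted by FACS. The low and high (top ~1%) gates were set on anti-HA fluorescence for expression and streptavidin fluorescence for reagent binding.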

Sequence | polyreactivity (PSR sort gate)
QVQLVESGGGLVQAGGSLRLSCAASGYTFRSNTMGWYRQAPGKERELVAAISGRGSSTYYADSVKGRFTISRDNAKNTVYLQMNSLKPEDTAVYYCAAQSKYYQYYSWGQGNQVTVSS | high polyreactivity
QVQLVESGGGLVQAGGSLRLSCAASGYTFRSYAMGWYRQAPGKERELVAGIDGSGGTTYYADSVKGRFTISRDNAKNTVYLQMNSLKPEDTAVYYCAAEAYKHGVWDYDYWGQGTQATVSS | low polyreactivity
QVQLVESGGGLVQAGGSLRLSCAASGYTFRVYTMGWYRQAPGKERELVAAISRRGSRTYYADSVKGRFTISRDNAKNSVYLQMNSLKPEDTAVYYCAAGIPYPDDYWGQGTQVTVSS | high polyreactivity
QVQLVESGGGLVQAGGSLRLSCAASGYTFRVYTMGWYRQAPGKERELVAAISRRGSRTYYADSVKGRFTISRDNAKNTVYLQMNSLKPEDTAVYYCAAGIPYPDDYWGQGTQVTVSS | high polyreactivity
QVQLVESGGGLVQAGGSLRLSCAASGYTFRYYAMGGYRQAPGKERELVADINSGDITNYADSVKGRFTISRDNAKNTVYLQMNSQKPEDTAVYYCAPRTFSLYDYWGQGTQVTVSS | low polyreactivity
QVQLVESGGGLVQAGGSLRLSCAASGYTFRYYAMGWYRQAPGKERELVAAINWSGGSTYYADSVKGRFTISRDNAKNTVYLQMNSLKPEDTAVYYCAADPDGDLDIDYDYWGQGTQVTVSS | low polyreactivity
QVQLVESGGGLVQAGGSLRLSCAASGYTFRYYAMGWYRQAPGKERELVARITGRAGSTYYADSVKGRFTISRDNAKNTVYLQMNSLKPEDTAVYYCAASIREGFYWGQGTQVTVSS | high polyreactivity
QVQLVESGGGLVQAGGSLRLSCAASGYTFSGYAMGWYRQAPGKERELVAAISGSSTRTYYADSVKGRFTITRDYAKNTVYFQMNSLKPEDTAVYYCAARFRHGGPYKYGYWGHGTQVTVSS | high polyreactivity
QVQLVESGGGLVQAGGSLRLSCAASGYTFSHYAMGWYRQAPGKERELVAGITWSGGSTYYADSVKGRFTISRENSKNTVYLQMNSLKPEDTSVYYCAAKYYWYYSYSGIPLFDYWGQGTQVTVSS | low polyreactivity
QVQLVESGGGLVQAGGSLRLSCAASGYTFSRYAMGLYRQAPGKERELVAAISHSAGRTYYADSVKGRFTISRDNAKNTVYLKMNSLKPEDTAVYYCATVLYSVPRYNYWGQGSQVTVSS | high polyreactivity
QVQLVESGGGLVQAGGSLRLSCAASGYTFSRYAMGWYRQAPGKERELVAAITGRGGSTYYADSVKGRFTISRDNAKNTVYLQMNSLKPEDTAVYYCAAPFGWRPLPISKVTSDYWGQGTQVTVSS | high polyreactivity
QVQLVESGGGLVQAGGSLRLSCAASGYTFSYYAMGWYRQAPGKERELVAAISWSGGSTYYADSVKGRFTISRDNAKNTVYLQMNSLKPEDTAFYYCAAKPWRGTLMRYGYWGQGTQVTVSS | high polyreactivity
QVQLVESGGGLVQAGGSLRLSCAASGYTFTIYAMGWYRQAPGKERELVAAITGRGGRTNYADSVKGRFTISRDNAKNTVYLQMNSLKPEDTAVYYCAKGGRSSSPRYRFDYWGQGTQVTVSS | high polyreactivity
QVQLVESGGGLVQAGGSLRLSCAASGYTFWDYAMGWYRQAPGKEREFVAGISFSDGGTYYADSVKGRFTITRDNAKNTVYLQMNSLKPEDTAVYYCAATYPYSWVYSGYYYWGQGTQVTVSS | low polyreactivity
QVQLVESGGGLVQAGGSLRLSCAASGYTFWFYAMGWYRQAPGKEREFVATISRSGGSTYYADSVKGRFTISRDNAKNTVYLQMNSLKPEDTAVYYCNARGPRSHRYDYWGQGTQVTVSS | high polyreactivity
QVQLVESGGGLVQAGGSLRLSCAASGYTFWQYAMGWYRQAPGKERELVATITSRGGSTYYADSVKGRFTISRDNAKNTVYLQMNSLKPEDTAVYYCNARRRYSTRRSDYWGQGTQVTVSS | high polyreactivity
QVQLVESGGGLVQAGGSLRLSCAASGYTFYANAMGWYRQAPGKEREFVASITWSGGSTYYADSVKGRFTISRDNAKNTVYLQMNSLKPEDTAVYYCADESWFKYDYWGQGTQVTVSS | low polyreactivity
QVQLVESGGGLVQAGGSLRLSCAASGYTFYDYAMGWYRQAPGKERELVARINGGGGTNYADSVKGRFTISRDNAKNTVYLQMNSLKPEDTAVYYCAADVYFRQGDVDLLRYDYWGQGTQVTVSS | low polyreactivity
QVQLVESGGGLVQAGGSLRLSCAASGYTFYFYAMGCYRQAPGKERELVAAITGGGTTSYADSVKGRFTISRDNAKNTVYLQMNSLKPEDTAVYYCNVLFADKSDYWGQGTQVTVSS | low polyreactivity
QVQLVESGGGLVQAGGSLRLSCAASGYTFYFYAMGWYRQAPGKERELVASITWRGGSTYYADSVKGRFTISRDNAKNTVYLQMNSLKPEDTAVYYCAKQVYYIYDYWGQGTQVTVSS | low polyreactivity
QVQLVESGGGLVQAGGSLRLSCAASGYTFYRNAMGWYRQAPGKERELVASLRDDGSTYYADSEKGRFTISRDNAKNTVYLHMNSLKPEDTAVYYCNSDYPYIWHKGARYWHENDYWGQGTQVTVSS | low polyreactivity
QVQLVESGGGLVQAGGSLRLSCAASGYTFYVYAMGWYRQAPGKERELVADISTSDGSTYYADSVKGRFTISRDNAKNTVYLQMNSLKPEDTAVYYCNTDGSHGLYDWFWPANNDDWGQGTQVSVSS | low polyreactivity

Sequence | polyreactivity (PSR sort gate)
QVQLVESGGGLVQAGGSLRLSCAASGYTIRGYVMGWYRQAPGKERELVAAISASGGRTYYADSVKGRFTISRDNAKNTVYLQMNSLKPEHTAVYYCAASKSKISSLDYWGQGTQVTVSS | high polyreactivity
QVQLVESGGGLVQAGGSLRLSCAASGYTIYRYAMGWYRQAPGNERELVAAISSAGTTNYADSVKGRFTISRDNAKNTVYLQINSLKPEDTAVYYCNKRGRNHNSLKYGYWGQGTQVTVSS | high polyreactivity
QVQLVESGGGLVQAGGSLRLSCAASGYTIYYYAMGWYRQAPGKERELVARITSGGSTYYADSVKGRFTISRDNAKNTVYLQMNSLKPVDTAVYYCNVEVSVEVAYWGQGTQVTVSS | low polyreactivity
QVQLVESGGGLVQAGGSLRLSCAASGYTLRYYAMGWYRQAPGKERELVAAITYSGGSTYYADSVKGRFTISRDHAKNTVYLQMNSLKPEDTAVYYCAADYRAPLDYWGQGTQVTVSS | low polyreactivity
QVQLVESGGGLVQAGGSLRLSCAASGYTQPANGMGLYRQAPGKERELVAAISFIAGSTYYADSVKGRFTISRDNAKNTVYLQMNSLKPEDTAVYYCATQFPPSTIYDYWGQGTQVSVSS | low polyreactivity
QVQLVESGGGLVQAGGSLRLSCAASGYTSYRYAMGWYRQAPGKERELVAAINWSGSSTYYADSVKGRFTISRDYAKNTVYLQMNSLKPEDTAVYYCAARRYRSPIGGYDYWGQGTQVTVSS | high polyreactivity
QVQLVESGGGLVQAGGSLRLSCAASGYTYPYYTMGWYRQAPGKERELVAAISSGGRTKYADSVKGRFTISRDNAKNTVYLQMNSLKPEDTAVYYCAKSGNYRTGRFDYWGQGTQVTVSS | high polyreactivity
QVQLVESGGGLVQAGGSLRLSCAASMGLYRQAPGKERDLVATITSDAGTNYADSVKGRFTISRDNAKNTVYLQRNSLKPEDTAVYYCNADGYDSSDFGEGDYWGQVTQVTVSS | low polyreactivity
QVQLVESGGGLVQAGGSLRLSCAASMGWYRQAPGKERELVAITRTTRTYYADSVKGRFTISRDNAKNTVYLQMNSLKPVDTAVYYCAAPNGPSPYWYNYWGQGTQVTVSS | low polyreactivity
QVQLVESGGGLVQAGGSLRLSCAASPLTFRYYDMGWYRQAPGKERELVAAISRTGRTNYADSVKGRFTISRDNAKNTVYVQMNSLKPEDTAVYYCAATGIYAKALLWYDYWGQGTQVTVSS | high polyreactivity
QVQLVESGGGLVQAGGSLRLSCAASRFIFSWYAMGWYRQAPGTERELVATISSSGGRTHYADSVKGRFTISRDNAKNTVDLHMKSLKPEVTEVYYCAAHPFYYFTTVYYWGQGTQVTVSS | high polyreactivity
QVQLVESGGGLVQAGGSLRLSCAASRGIFGYNAMGWYRQAPGKERELVARISSSGGSTYYADSVKGRFTISRDNAKNTVYLQMNSLKPEDTAVYYCNTASNRYPGWRAEFDYWGQGTQVTVSS | low polyreactivity
QVQLVESGGGLVQAGGSLRLSCAASRIFFNGYAMGWYRQAHGSERELVAAITVSGGRTFYADSVKGRFTISRDNAKNTVYLQMNSLKPEDTAVYYCNAVPRRVRLYDYWGQGTQVNVSS | high polyreactivity
QVQLVESGGGLVQAGGSLRLSCAASRITFYPNDMGWDRQAPGKERELVAAITTNDGDTYYADSVKGRFTISRDNAKNTVYLQMISLQPEDTAVYYCAADSGSTSEYEYLGQGTQVTVSS | low polyreactivity
QVQLVESGGGLVQAGGSLRLSCAASRLTFQDYAMGWYRQAPGKERELVAGISRSGGRTNYADSVKGRFTISRDNAKNTVYLQMNSLKPEDTAVYYCATPYRRLNTWIYDYWGQGTQVTVSS | high polyreactivity
QVQLVESGGGLVQAGGSLRLSCAASRLTFQQYAMGWYRQAPGKERELVAAITSDGASTNYADSVKGRFTISRDYAKNTVYLQMNSLKPEDTAVYYCAARRRSRQYRYDYWGQGTQVTVSS | high polyreactivity
QVQLVESGGGLVQAGGSLRLSCAASRNIFRYYVMGWYRPAPGKEREFVAAISYRAGSTYYADSVKGSFTISRDNAKNTVYLQMNSLKPEDTAFYYCNAERTRDFYEYDYWGQGTQVTVSS | low polyreactivity
QVQLVESGGGLVQAGGSLRLSCAASRNTFVPYVMGWYRQAPGKERELVAAISRRGGSTRYADSVKGRFTISRDNAKNTVYLQMNSLKPEDTAVYYCAAKRKSYYSYNFDYWGHGTQVTVSS | high polyreactivity
QVQLVESGGGLVQAGGSLRLSCAASRSIFDLYAMGWYRQAPGKEREFVAAITWRGSSTYYADSVKGRFTISRDNAKNNVYLQMNSLKPEDTAVYYCAATHNQVVARYAFIYWGQGTQVTVSS | high polyreactivity
QVQLVESGGGLVQAGGSLRLSCAASRSIFGTYAMGWYRQAPGKERELVAAISYSGGSTYYADSVKGRFTISRDNGKYTVYLQMNSLKPEDTAVYYCNKSRFYWGYYWGQGTQVTVSS | low polyreactivity
QVQLVESGGGLVQAGGSLRLSCAASRSIFRSYAMGWYTQAPGKERELVAAITSSSGSTYYADSVKGRFTISRDNAKNTVYLQMNSLKPEDTAVYYCNAPYWKSRFRAYYHWGQGTQVTVSS | high polyreactivity
